Test results: the supplement of paper PMC10065799, “High-throughput profiling of sequence recognition by tyrosine kinases and SH2 domains using bacterial peptide display” (eLife, 2023)

What was measured:
Grb2 SH2 = Grb2 SH2 (UniProt P62993); test: SH2 binding enrichment of the phosphorylated peptide, bacterial display (enrichment ratio); higher = better substrate or ligand; peptides without Tyr show the background
c-Src SH2 = test: as above
SHP2-C SH2 = test: as above
Fyn = Fyn (UniProt P06241); test: phosphorylation enrichment, bacterial display (enrichment ratio); higher = better substrate or ligand; peptides without Tyr show the background
Fyn, sequence (P06241 whole entry, looked up): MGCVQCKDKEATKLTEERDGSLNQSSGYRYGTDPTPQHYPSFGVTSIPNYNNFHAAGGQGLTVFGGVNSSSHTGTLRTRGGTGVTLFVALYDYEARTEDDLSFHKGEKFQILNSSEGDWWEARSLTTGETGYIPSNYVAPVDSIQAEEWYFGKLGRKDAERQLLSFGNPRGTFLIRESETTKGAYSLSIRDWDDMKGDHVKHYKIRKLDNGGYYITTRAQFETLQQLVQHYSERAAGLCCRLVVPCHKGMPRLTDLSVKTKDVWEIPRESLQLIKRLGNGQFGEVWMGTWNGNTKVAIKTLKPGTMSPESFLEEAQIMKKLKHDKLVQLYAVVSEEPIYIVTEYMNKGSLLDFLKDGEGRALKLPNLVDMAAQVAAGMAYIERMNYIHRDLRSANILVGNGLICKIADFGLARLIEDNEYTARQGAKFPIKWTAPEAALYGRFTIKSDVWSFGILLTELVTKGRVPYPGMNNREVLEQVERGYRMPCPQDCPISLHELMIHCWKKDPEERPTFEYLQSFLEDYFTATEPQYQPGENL

c-Abl (mouse) = test: as above
EPHB2 = EPHB2 (UniProt P29323); test: as above
EPHB2, sequence (P29323 whole entry, looked up): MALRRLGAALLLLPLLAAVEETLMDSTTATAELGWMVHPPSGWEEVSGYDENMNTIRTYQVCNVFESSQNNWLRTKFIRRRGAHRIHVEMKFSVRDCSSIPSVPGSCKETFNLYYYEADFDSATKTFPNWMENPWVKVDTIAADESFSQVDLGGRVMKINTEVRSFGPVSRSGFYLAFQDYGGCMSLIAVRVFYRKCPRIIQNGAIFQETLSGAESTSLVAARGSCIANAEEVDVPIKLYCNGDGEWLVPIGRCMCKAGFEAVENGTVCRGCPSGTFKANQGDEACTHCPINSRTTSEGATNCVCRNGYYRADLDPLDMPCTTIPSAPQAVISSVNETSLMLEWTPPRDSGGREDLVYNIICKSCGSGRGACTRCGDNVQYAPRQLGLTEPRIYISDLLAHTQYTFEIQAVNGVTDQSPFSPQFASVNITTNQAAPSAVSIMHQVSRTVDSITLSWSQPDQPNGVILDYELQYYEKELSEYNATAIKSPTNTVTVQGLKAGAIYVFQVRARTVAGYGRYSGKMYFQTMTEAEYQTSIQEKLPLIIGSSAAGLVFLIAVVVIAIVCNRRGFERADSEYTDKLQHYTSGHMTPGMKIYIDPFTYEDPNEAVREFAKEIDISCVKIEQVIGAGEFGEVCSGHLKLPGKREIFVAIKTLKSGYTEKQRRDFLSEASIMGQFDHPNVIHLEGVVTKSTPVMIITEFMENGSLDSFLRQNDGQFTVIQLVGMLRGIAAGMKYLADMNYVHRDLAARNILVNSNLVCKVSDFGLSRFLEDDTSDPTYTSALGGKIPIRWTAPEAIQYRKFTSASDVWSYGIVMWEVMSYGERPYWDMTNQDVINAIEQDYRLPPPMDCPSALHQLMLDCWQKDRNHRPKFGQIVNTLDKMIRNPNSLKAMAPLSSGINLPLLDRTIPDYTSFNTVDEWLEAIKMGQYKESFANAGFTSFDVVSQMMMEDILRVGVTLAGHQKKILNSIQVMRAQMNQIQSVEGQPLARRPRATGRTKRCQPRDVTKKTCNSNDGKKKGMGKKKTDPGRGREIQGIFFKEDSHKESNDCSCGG

AncSZ = test: as above
FGFR3 = FGFR3 (UniProt P22607); test: as above
FGFR3, sequence (P22607 whole entry, looked up): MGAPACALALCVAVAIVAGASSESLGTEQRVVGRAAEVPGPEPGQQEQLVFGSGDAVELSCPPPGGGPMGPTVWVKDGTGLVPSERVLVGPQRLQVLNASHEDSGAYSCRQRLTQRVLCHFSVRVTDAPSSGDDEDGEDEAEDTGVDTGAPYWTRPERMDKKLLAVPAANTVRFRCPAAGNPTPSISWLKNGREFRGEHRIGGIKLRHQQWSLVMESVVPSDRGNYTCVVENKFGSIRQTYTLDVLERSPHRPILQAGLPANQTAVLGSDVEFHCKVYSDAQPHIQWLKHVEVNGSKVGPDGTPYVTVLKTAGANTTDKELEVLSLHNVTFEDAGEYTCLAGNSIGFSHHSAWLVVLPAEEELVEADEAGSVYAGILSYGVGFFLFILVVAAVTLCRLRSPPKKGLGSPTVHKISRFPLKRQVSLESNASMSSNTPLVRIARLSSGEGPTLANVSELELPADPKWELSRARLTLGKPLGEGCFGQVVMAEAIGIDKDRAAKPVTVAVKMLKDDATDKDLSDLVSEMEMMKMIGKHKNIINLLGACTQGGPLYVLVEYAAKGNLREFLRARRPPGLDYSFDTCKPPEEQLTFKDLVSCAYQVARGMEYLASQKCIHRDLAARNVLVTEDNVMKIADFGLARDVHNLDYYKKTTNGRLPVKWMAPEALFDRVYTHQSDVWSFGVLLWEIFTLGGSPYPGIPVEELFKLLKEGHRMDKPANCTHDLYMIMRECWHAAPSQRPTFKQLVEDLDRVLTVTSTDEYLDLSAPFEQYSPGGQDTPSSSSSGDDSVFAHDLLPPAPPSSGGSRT

Jak2 = Jak2 (UniProt O60674); test: as above
Jak2, sequence (O60674 whole entry, looked up): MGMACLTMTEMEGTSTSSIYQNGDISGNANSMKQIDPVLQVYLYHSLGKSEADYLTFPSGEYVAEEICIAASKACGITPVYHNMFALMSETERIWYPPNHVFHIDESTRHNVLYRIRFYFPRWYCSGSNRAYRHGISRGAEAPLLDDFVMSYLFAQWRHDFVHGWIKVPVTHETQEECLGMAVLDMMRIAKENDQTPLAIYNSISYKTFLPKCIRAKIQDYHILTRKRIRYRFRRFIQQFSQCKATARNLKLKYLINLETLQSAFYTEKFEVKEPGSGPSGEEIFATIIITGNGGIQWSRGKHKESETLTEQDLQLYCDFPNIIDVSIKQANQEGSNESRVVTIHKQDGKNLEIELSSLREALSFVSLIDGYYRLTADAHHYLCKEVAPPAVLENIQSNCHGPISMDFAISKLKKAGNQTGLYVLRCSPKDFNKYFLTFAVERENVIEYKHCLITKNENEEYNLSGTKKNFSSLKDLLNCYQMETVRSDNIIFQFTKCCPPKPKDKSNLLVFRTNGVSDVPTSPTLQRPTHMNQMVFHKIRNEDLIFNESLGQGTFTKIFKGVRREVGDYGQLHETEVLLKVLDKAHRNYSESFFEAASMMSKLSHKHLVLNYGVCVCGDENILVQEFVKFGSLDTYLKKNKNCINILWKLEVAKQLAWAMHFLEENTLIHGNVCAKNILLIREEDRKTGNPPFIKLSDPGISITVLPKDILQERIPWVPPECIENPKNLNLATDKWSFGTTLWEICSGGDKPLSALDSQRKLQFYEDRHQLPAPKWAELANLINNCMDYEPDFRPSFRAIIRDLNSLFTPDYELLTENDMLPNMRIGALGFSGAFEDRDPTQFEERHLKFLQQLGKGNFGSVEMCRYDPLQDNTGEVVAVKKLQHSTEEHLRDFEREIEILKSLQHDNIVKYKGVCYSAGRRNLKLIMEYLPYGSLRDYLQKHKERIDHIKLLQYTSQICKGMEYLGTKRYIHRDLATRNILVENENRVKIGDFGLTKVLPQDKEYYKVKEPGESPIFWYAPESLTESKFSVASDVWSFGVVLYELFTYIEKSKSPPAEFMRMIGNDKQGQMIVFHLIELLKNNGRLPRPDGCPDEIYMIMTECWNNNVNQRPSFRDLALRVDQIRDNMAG

Hck = Hck (UniProt P08631); test: as above
Hck, sequence (P08631 whole entry, looked up): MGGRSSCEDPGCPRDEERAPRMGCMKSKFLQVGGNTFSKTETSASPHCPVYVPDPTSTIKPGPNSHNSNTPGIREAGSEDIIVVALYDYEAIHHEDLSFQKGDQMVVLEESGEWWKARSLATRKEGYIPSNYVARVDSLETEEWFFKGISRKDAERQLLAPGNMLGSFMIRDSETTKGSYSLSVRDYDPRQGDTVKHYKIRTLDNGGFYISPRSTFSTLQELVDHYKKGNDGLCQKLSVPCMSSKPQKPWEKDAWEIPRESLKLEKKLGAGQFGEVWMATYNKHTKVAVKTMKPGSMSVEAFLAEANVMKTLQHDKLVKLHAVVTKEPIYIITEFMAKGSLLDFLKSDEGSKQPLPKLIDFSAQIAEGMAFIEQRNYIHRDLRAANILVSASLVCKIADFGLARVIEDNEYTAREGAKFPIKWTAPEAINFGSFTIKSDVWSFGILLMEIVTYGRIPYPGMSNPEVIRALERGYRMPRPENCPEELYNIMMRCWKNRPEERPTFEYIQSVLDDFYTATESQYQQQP

Fes = Fes (UniProt P07332); test: as above
Fer (mouse) = test: as above
EPHB1 = EPHB1 (UniProt P54762); test: as above
EPHB1, sequence (P54762 whole entry, looked up): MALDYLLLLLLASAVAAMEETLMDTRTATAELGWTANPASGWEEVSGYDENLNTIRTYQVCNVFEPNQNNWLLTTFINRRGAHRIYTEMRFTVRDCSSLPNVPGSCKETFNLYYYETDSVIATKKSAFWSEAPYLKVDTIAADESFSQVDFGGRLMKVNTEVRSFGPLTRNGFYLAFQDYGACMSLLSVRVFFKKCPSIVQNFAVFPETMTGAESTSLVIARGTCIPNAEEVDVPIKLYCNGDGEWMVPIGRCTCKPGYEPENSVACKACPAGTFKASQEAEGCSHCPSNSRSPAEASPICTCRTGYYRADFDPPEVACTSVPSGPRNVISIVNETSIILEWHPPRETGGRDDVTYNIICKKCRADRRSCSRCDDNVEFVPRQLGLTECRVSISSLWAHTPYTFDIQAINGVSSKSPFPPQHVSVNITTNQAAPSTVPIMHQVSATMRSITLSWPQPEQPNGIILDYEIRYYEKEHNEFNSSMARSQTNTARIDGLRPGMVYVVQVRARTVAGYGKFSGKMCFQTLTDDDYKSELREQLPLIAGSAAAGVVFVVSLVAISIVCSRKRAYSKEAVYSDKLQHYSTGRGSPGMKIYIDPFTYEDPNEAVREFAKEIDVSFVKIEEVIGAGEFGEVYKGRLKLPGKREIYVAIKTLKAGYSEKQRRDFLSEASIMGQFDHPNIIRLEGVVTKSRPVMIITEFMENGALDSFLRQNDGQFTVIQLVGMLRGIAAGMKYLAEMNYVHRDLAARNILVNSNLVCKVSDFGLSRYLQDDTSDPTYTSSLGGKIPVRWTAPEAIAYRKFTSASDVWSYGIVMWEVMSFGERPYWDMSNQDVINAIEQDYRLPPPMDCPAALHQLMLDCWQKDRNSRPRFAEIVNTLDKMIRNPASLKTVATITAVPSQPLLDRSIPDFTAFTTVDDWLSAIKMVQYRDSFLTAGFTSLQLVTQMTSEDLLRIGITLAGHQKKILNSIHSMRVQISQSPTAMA

MERTK = MERTK (UniProt Q12866); test: as above
FGFR1 = FGFR1 (UniProt P11362); test: as above
c-Src = test: as above
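For SH2 binding enrichment of the phosphorylated peptide, bacterial display in this document: peptide library displayed on the E. coli surface as eCPX fusions, selected cells deep-sequenced, score is each peptide's frequency after selection divided by its frequency in the input.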
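For phosphorylation enrichment, bacterial display in this document: 11-residue human phosphosite peptides and single-mutation variants displayed on the E. coli surface, counted by deep sequencing, each peptide's frequency after selection divided by its frequency in the unselected input library; frequency after pTyr selection over input frequency; kinase dosed for 20-30% of maximal phosphorylation in three min.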

Row | Sequence | SH2 binding enrichment (Grb2 SH2) | SH2 binding enrichment (c-Src SH2) | SH2 binding enrichment (SHP2-C SH2) | phosphorylation enrichment (Fyn) | phosphorylation enrichment (c-Abl (mouse)) | phosphorylation enrichment (EPHB2) | phosphorylation enrichment (AncSZ) | phosphorylation enrichment (FGFR3) | phosphorylation enrichment (Jak2) | phosphorylation enrichment (Hck) | phosphorylation enrichment (Fes) | phosphorylation enrichment (Fer (mouse)) | phosphorylation enrichment (EPHB1) | phosphorylation enrichment (MERTK) | phosphorylation enrichment (FGFR1) | phosphorylation enrichment (c-Src)
1 | IVFVIYDEVVK [SLC25A1_Y297] | 1.5 | 1.27 | 1.61 | 1.03 | 0.888 | 2.01 | 1.16 | 0.863 | 1.26 | 1.44 | 1.19 | 0.708 | 1.9 | 0.576 | 0.53 | 0.855
2 | IYLADCRIMEG [ALOX12B_Y318_Y318C] | 0.821 | 0.45 | 0.671 | 0.684 | 0.869 | 0.932 | 1.27 | 0.842 | 0.95 | 0.691 | 1.36 | 0.65 | 0.693 | 0.556 | 0.648 | 0.559
3 | IYRASYYRKGG [ALK_Y1282] | 0.825 | 0.528 | 0.702 | 0.513 | 0.676 | 0.481 | 0.615 | 0.403 | 0.753 | 0.476 | 0.622 | 0.45 | 0.419 | 0.621 | 0.414 | 0.557
4 | KAWGIYDCQQP [CYP3A7_Y75_V71A] | 0.969 | 0.602 | 0.489 | 7.28 | 1.12 | 4.21 | 1.73 | 0.852 | 1.12 | 6.67 | 1.56 | 3.52 | 8.32 | 5.53 | 0.53 | 4.8
5 | KEELDYLKKNH [KRT14_Y248_A247D] | 0.742 | 0.425 | 0.682 | 0.355 | 0.854 | 0.624 | 1.04 | 0.666 | 0.879 | 0.382 | 1.1 | 0.45 | 0.554 | 0.419 | 0.447 | 0.467
6 | KFANSYIMEPL [TCTE3_Y87_R88I] | 0.91 | 0.583 | 0.715 | 0.529 | 0.436 | 0.531 | 0.853 | 0.629 | 0.476 | 0.432 | 0.606 | 0.498 | 0.39 | 0.37 | 0.524 | 0.712
7 | KFDLMYAKRAF [TUBA1A_Y399] | 0.802 | 0.444 | 0.548 | 0.434 | 0.544 | 0.536 | 0.905 | 0.589 | 0.667 | 0.463 | 0.921 | 0.442 | 0.535 | 0.414 | 0.465 | 0.409
8 | KFLENYFDLEK [MMP3_Y41_K45E_YF] | 0.991 | 0.741 | 1.06 | 0.467 | 0.844 | 0.878 | 1.39 | 2.14 | 1.39 | 0.487 | 1.23 | 0.439 | 2.5 | 0.46 | 3.77 | 0.502
9 | KGEDFYCVTCH [FHL1_Y149] | 1.19 | 0.962 | 0.842 | 0.797 | 0.675 | 0.569 | 1.09 | 0.775 | 0.933 | 0.801 | 1.12 | 0.504 | 0.696 | 0.597 | 0.579 | 0.613

The next lines start with results.

Row | SH2 binding enrichment (Grb2 SH2) | SH2 binding enrichment (c-Src SH2) | SH2 binding enrichment (SHP2-C SH2) | Sequence | phosphorylation enrichment (Fyn) | phosphorylation enrichment (c-Abl (mouse)) | phosphorylation enrichment (EPHB2) | phosphorylation enrichment (AncSZ) | phosphorylation enrichment (FGFR3) | phosphorylation enrichment (Jak2) | phosphorylation enrichment (Hck) | phosphorylation enrichment (Fes) | phosphorylation enrichment (Fer (mouse)) | phosphorylation enrichment (EPHB1) | phosphorylation enrichment (MERTK) | phosphorylation enrichment (FGFR1) | phosphorylation enrichment (c-Src)
10 | 0.998 | 0.962 | 0.954 | ITNLLYHVVGW [GBA_Y412] | 4.07 | 2.9 | 3.59 | 1.18 | 5.65 | 3 | 5.96 | 1.32 | 2.79 | 5.73 | 7.56 | 6.87 | 4.6
11 | 0.854 | 1.1 | 0.695 | ITRDIYETDYY [INSR_Y1185_M1180I] | 1.58 | 0.722 | 1.55 | 2.67 | 1.95 | 1.09 | 1.19 | 1.47 | 0.72 | 1.45 | 0.828 | 2.03 | 2.76
12 | 1.01 | 1.28 | 1.22 | IYSGIYYKPES [L2HGDH_Y102_H98Y] | 10.2 | 23.7 | 15.9 | 3.08 | 7.9 | 7.32 | 9.78 | 9.02 | 15.8 | 14.1 | 11.5 | 8.71 | 7.25
13 | 4.72 | 3.58 | 0.674 | KAPPTYDNVLQ [CYP3A4_Y347_T349N] | 0.978 | 0.511 | 3.6 | 0.606 | 0.482 | 0.514 | 1.68 | 0.714 | 1.85 | 6.04 | 1.22 | 0.452 | 0.785
14 | 0.897 | 0.518 | 0.875 | KAWTIYHPEDS [ZBP1_Y165_R166H] | 0.646 | 0.723 | 0.547 | 0.949 | 0.787 | 0.871 | 0.569 | 1.02 | 0.482 | 0.559 | 0.474 | 0.432 | 0.833
15 | 1.2 | 1.22 | 1.29 | KGRGEYFAIKA [PRKCD_Y374] | 0.426 | 0.769 | 0.905 | 0.702 | 2.67 | 0.702 | 0.614 | 0.666 | 0.451 | 0.943 | 0.381 | 4.32 | 0.47
16 | 0.974 | 1.81 | 0.933 | KGRGEYSAIKA [PRKCD_Y374_F375S] | 0.412 | 0.761 | 0.366 | 0.553 | 0.443 | 0.636 | 0.811 | 0.864 | 0.45 | 0.434 | 0.603 | 0.393 | 0.625
